Measurements as given in patent US20230312741A1 (published 2023).

T1: human CD73 expressed on the cell surface (human, UniProt P21589 27-549)
T1 sequence: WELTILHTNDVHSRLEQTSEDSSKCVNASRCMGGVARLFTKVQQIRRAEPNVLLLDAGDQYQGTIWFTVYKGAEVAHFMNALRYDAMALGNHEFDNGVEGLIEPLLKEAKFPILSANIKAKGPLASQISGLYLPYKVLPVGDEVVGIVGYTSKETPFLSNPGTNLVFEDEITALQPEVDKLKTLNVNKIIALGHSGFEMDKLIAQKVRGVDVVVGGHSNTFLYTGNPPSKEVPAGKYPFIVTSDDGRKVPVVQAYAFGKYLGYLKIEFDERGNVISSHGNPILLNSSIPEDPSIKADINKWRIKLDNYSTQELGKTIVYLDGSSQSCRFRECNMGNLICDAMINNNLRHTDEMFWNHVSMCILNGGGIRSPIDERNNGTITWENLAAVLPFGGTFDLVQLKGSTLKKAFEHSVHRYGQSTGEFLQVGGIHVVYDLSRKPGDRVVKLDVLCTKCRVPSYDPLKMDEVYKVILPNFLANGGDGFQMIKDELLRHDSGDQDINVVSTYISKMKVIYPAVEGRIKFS

T2: human CD73 antigen (human, UniProt P21589 27-547)
T2 construct: also called Biotinylated Human CD73
T2 sequence (looked up): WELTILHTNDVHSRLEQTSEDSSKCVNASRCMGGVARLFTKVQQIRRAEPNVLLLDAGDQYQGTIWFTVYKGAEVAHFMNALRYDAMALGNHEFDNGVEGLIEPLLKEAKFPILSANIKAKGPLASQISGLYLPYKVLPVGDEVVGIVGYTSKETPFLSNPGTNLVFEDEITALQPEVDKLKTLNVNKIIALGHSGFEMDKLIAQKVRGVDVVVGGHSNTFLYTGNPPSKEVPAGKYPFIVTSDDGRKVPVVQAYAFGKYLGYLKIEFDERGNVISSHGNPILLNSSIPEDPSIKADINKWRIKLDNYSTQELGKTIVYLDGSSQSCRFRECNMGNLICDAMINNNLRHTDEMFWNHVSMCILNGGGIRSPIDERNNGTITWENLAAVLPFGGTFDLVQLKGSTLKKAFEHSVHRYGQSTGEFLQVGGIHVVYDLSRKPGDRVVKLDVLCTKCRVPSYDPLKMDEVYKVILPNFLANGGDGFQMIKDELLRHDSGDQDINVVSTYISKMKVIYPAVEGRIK

T3: cynomolgus monkey CD73 antigen (cynomolgus monkey, UniProt A0A2K5V5U7 27-547)
T3 construct: also called Biotinylated cynomolgus monkey CD73
T3 sequence: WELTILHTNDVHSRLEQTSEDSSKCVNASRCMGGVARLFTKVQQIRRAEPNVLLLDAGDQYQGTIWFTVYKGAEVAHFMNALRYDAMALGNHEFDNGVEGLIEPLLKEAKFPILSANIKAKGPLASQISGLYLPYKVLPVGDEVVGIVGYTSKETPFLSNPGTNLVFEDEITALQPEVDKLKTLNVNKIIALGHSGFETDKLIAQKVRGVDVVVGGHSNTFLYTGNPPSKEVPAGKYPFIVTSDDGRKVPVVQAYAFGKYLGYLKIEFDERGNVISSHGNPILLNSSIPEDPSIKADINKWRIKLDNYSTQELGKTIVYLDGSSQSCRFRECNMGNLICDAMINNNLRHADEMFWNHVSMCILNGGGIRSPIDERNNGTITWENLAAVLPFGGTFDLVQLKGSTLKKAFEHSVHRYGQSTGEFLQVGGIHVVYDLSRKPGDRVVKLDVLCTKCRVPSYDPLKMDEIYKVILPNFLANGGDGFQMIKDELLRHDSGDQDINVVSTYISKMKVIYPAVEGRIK


What was measured:
[1] = biological target: T1, human CD73 expressed on the cell surface; experiment: cell-based or functional assay
[2] = biological target: T2, human CD73 antigen; experiment: ForteBio BLI; antigen on sensor, 100 nM scFv; monovalent; 1:1 model
Description: (§1) Human or cynomolgus monkey CD73 antigen protein was loaded on-line to the AHQ sensor (ForteBio) for ForteBio affinity measurement. […] Kinetic analysis was performed by using a 1:1 binding model.

[3] = biological target: T3, cynomolgus monkey CD73 antigen; experiment: as above
Description: as §1

| Binder | IC50 for inhibiting the enzymatic activity of CD73 (Calu-6 cells) [1] | Kd [2] | Kd [3] |
| --- | --- | --- | --- |
| ADI-37513 (antibody, human IgG4 S228P, kappa, F234A L235A, V domains shown) VH: EVQLLESGGGVVQPGRSLRLSCAASGFTFNFYGMHWVRQAPGKGLEWVAVINDEGINKYYADSVKGRFTISRDNSKNTLYLQMNSLRAEDTAVYYCARGGARYPIAFDIWGQGTMVTVSS VL: DIQLTQSPSSVSASVGDRVTITCRASQDISSWLAWYQQKPGKAPKLLIYAASSLQSGVPSRFSGSGSGTDFTLTISSLQPEDFATYYCQQANDFPITFGGGTKVEIKR | 0.143 µg/mL | – | – |
| ADI-37522 (antibody, human IgG4 S228P, kappa, F234A L235A, V domains shown) VH: QVQLVESGGGVVQPGRSLRLSCAASGFTFSHYGMHWVRQAPGKGLEWVAVISDEGSNKYYADSVKGRFTISRDNSKNTLYLQMNSLRAEDTAVYYCARGWLRYPIAFDIWGQGTMVTVSS VL: DIQLTQSPSSVSASVGDRVTITCRASQDISSWLAWYQQKPGKAPKLLIYAASSLQSGVPSRFSGSGSGTDFTLTISSLQPEDFATYYCQQANDFPITFGGGTKVEIKR | 0.146 µg/mL | – | – |
| ADI-37504 (antibody, human IgG4 S228P, kappa, F234A L235A, V domains shown) VH: EVQLLESGGGLVQPGGSLRLSCAASGFTFHNYAMSWVRQAPGKGLEWVSAISGTGRATYYADSVKGRFTISRDNSKNTLYLQMNSLRAEDTAVYYCARGGPYGSGSYWDTFDYWGQGTLVTVSS VL: EIVMTQSPATLSVSPGERATLSCRASQSVSSNLAWYQQKPGQAPRLLIYGASTRATGIPARFSGSGSGTEFTLTISSLQSEDFAVYYCQQYTNHYTFGGGTKVEIKR | 0.07 µg/mL | – | – |
| ADI-37503 (antibody, human IgG4 S228P, kappa, F234A L235A, V domains shown) VH: EVQLLESGGGLVQPGGSLRLSCAASGFTFSNYAMSWVRQAPGKGLEWVSAISGRASSTYYADSVKGRFTISRDNSKNTLYLQMNSLRAEDTAVYYCARGGPYGSGSYWDTFDYWGQGTLVTVSS VL: EIVMTQSPATLSVSPGERATLSCRASQSVSSNLAWYQQKPGQAPRLLIYGASTRATGIPARFSGSGSGTEFTLTISSLQSEDFAVYYCQQYTNHYTFGGGTKVEIKR | 0.062 µg/mL | – | – |
| scfv fragment of ADI-37503 (scFv, V domains shown) VH: EVQLLESGGGLVQPGGSLRLSCAASGFTFSNYAMSWVRQAPGKGLEWVSAISGRASSTYYADSVKGRFTISRDNSKNTLYLQMNSLRAEDTAVYYCARGGPYGSGSYWDTFDYWGQGTLVTVSS VL: EIVMTQSPATLSVSPGERATLSCRASQSVSSNLAWYQQKPGQAPRLLIYGASTRATGIPARFSGSGSGTEFTLTISSLQSEDFAVYYCQQYTNHYTFGGGTKVEIK | – | 7.95 nM | 6.61 nM |
| ADI-37507 (antibody, human IgG4 S228P, kappa, F234A L235A, V domains shown) VH: EVQLLESGGGLVQPGGSLRLSCAASGFTFLNYAMAWVRQAPGKGLEWVSAISGRATSTYYADSVKGRFTISRDNSKNTLYLQMNSLRAEDTAVYYCARGGPYGSGSYWDTFDYWGQGTLVTVSS VL: EIVMTQSPATLSVSPGERATLSCRASQSVSSNLAWYQQKPGQAPRLLIYGASTRATGIPARFSGSGSGTEFTLTISSLQSEDFAVYYCQQYTNHYTFGGGTKVEIKR | 0.078 µg/mL | – | – |
| scfv fragment of ADI-37505 (scFv, V domains shown) VH: QVQLVESGGGLVQPGGSLRLSCAASGFTFSNYAMTWVRQAPGKGLEWVSAISGRGTATYYADSVKGRFTISRDNSKNTLYLQMNSLRAEDTAVYYCARGGPYGSGSYWDTFDYWGQGTLVTVSS VL: EIVMTQSPATLSVSPGERATLSCRASQSVSSNLAWYQQKPGQAPRLLIYGASTRATGIPARFSGSGSGTEFTLTISSLQSEDFAVYYCQQYTNHYTFGGGTKVEIK | – | 5.56 nM | 5.34 nM |
| scfv fragment of ADI-37504 (scFv, V domains shown) VH: EVQLLESGGGLVQPGGSLRLSCAASGFTFHNYAMSWVRQAPGKGLEWVSAISGTGRATYYADSVKGRFTISRDNSKNTLYLQMNSLRAEDTAVYYCARGGPYGSGSYWDTFDYWGQGTLVTVSS VL: EIVMTQSPATLSVSPGERATLSCRASQSVSSNLAWYQQKPGQAPRLLIYGASTRATGIPARFSGSGSGTEFTLTISSLQSEDFAVYYCQQYTNHYTFGGGTKVEIK | – | 15.4 nM | 20.2 nM |
| scfv fragment of ADI-37506 (scFv, V domains shown) VH: EVQLLESGGGLVQPGGSLRLSCAASGFTFSNLAMSWVRQAPGKGLEWVSAISGRATSTYYADSVKGRFTISRDNSKNTLYLQMNSLRAEDTAVYYCARGGPYGSGSYWDTFDYWGQGTLVTVSS VL: EIVMTQSPATLSVSPGERATLSCRASQSVSSNLAWYQQKPGQAPRLLIYGASTRATGIPARFSGSGSGTEFTLTISSLQSEDFAVYYCQQYTNHYTFGGGTKVEIK | – | 5.41 nM | 4.77 nM |
| scfv fragment of ADI-37507 (scFv, V domains shown) VH: EVQLLESGGGLVQPGGSLRLSCAASGFTFLNYAMAWVRQAPGKGLEWVSAISGRATSTYYADSVKGRFTISRDNSKNTLYLQMNSLRAEDTAVYYCARGGPYGSGSYWDTFDYWGQGTLVTVSS VL: EIVMTQSPATLSVSPGERATLSCRASQSVSSNLAWYQQKPGQAPRLLIYGASTRATGIPARFSGSGSGTEFTLTISSLQSEDFAVYYCQQYTNHYTFGGGTKVEIK | – | 9.21 nM | 23.7 nM |
| ADI-37542 (antibody, human IgG4 S228P, kappa, F234A L235A, V domains shown) VH: QVQLQESGPGLVKPSETLSLTCAVSGYSISEGYYWGWIRQPPGKGLEWIGSIYHTGFTYYNPSLKSRVTISVDTSKNQFSLKLSSVTAADTAVYYCARASIYTPPPEYFQHWGQGTLVTVSS VL: DIQMTQSPSTLSASVGDRVTITCRASQSISSWLAWYQQKPGKAPKLLIYDASSLESGVPSRFSGSGSGTEFTLTISSLQPDDFATYYCQQSRIYSTFGGGTKVEIKR | 0.189 µg/mL | – | – |
| ADI-37543 (antibody, human IgG4 S228P, kappa, F234A L235A, V domains shown) VH: QVQLQESGPGLVKPSETLSLTCAVSGYSISSGYYWAWIRQPPGKGLEWIGSIFHSGFTFYNPSLKSRVTISVDTSKNQFSLKLSSVTAADTAVYYCARASIYTPPPEYFQHWGQGTLVTVSS VL: DIQMTQSPSTLSASVGDRVTITCRASQSISSWLAWYQQKPGKAPKLLIYDASSLESGVPSRFSGSGSGTEFTLTISSLQPDDFATYYCQQSRIYSTFGGGTKVEIKR | 0.196 µg/mL | – | – |
| ADI-37532 (antibody, human IgG4 S228P, kappa, F234A L235A, V domains shown) VH: QVQLVESGGGVVQPGRSLRLSCAASGFTFSSYSMHWVRQAPGKGLEWVAHIVEGSDKYYADSVKGRFTISRDNSKNTLYLQMNSLRAEDTAVYYCARSRYDWSLFDIWGQGTMVTVSS VL: EIVLTQSPGTLSLSPGERATLSCGASQSVSSSYLAWYQQKPGQAPRLLIYGASSRATGIPDRFSGSGSGTDFTLTISRLEPEDFAVYYCQQYVLYPFTFGGGTKVEIKR | 0.114 µg/mL | – | – |
| ADI-37497 (antibody, human IgG4 S228P, kappa, F234A L235A, V domains shown) VH: EVQLVESGGGLVQPGGSLRLSCAASGFTFDDYFMHWVRQAPGKGLEWVSGISWSSGPIDYADSVKGRFTISRDNAKNSLYLQMNSLRAEDTAVYYCAKGKYLPTGSVDYWGQGTLVTVSS VL: EIVLTQSPGTLSLSPGERATLSCRASQSVSSSYLAWYQQKPGQAPRLLIYGASSRATGIPDRFSGSGSGTDFTLTISRLEPEDFAVYYCQQYYDYPPITFGGGTKVEIKR | 0.147 µg/mL | – | – |
| ADI-37496 (antibody, human IgG4 S228P, kappa, F234A L235A, V domains shown) VH: EVQLVESGGGLVQPGRSLRLSCAASGFTFDDFYMHWVRQAPGKGLEWVSGISWSSTSIDYADSVKGRFTISRDNAKNSLYLQMNSLRAEDTAVYYCAKGKYLPTGSVDYWGQGTLVTVSS VL: EIVLTQSPGTLSLSPGERATLSCRASQSVSSSYLAWYQQKPGQAPRLLIYGASSRATGIPDRFSGSGSGTDFTLTISRLEPEDFAVYYCQQYYDYPPITFGGGTKVEIKR | 0.173 µg/mL | – | – |
